Test results as given in patent US20130273052A1.

Tests used:
[1] = biological target: human complement component C5 protein (human); assay: cell-based or functional assay
[2] = biological target: human complement component C5 protein (human); assay: Biacore 3000 SPR, scFv immobilised on CM5 chip, C5 0.1875-24 nM as analyte, 25 C, 1:1 Langmuir model
[3] = biological target: R38Q scFv (variant of the anti-C5 single chain antibody pexelizumab); assay: Biacore SPR self-association, R38Q scFv immobilised on CM5 chip, R38Q scFv 0.6-75 µM as analyte; poor fit to the Langmuir model

Kd [2]: 0.000108 µM
koff [2]: 6.06e-05 s⁻¹
kon [2]: 559000 M⁻¹ s⁻¹
Kd [3]: 32 µM
koff [3]: 0.0107 s⁻¹
kon [3]: 334 M⁻¹ s⁻¹
Substance: R38Q scFv (variant of the anti-C5 single chain antibody pexelizumab)
inhibition of chicken erythrocyte hemolysis in about 10% normal human serum (absorbance at 415 nm), IC50 [1]: 2 µg/mL
